Drawing on publication PMC9482650, “Quantitative fragmentomics allow affinity mapping of interactomes” (Nature Communications, 2022), this text covers pKd for five molecules.

Targets include DLG1_1, Q12959; DLG1_3, Q12959; DLG4_1, P78352; Inadl_3, Q8NI35; Inadl_4, Q8NI35; Inadl_9, Q8NI35; MAGI1_2, Q96QZ7; MAGI2_5, Q86UL8.
What all share (assay): holdup assay
What all share (parameters): key: below the threshold = too weak to quantify, mostly under pKd 3.1 to 4

Another assay has as its target T1, APBA1_1, Q02410.
T1 sequence (Q02410 651-752, limits assumed, looked up): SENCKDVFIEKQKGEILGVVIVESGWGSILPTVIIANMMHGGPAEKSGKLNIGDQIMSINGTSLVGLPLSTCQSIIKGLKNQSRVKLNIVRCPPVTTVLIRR

Another assay has as its target T2, APBA2_1, Q99767.
T2 sequence (Q99767 563-664, limits assumed, looked up): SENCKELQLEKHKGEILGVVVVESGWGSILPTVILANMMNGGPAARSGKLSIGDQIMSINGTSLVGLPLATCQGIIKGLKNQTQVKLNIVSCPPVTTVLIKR

A further assay has as its target T3, APBA2_2, Q99767.
T3 sequence (Q99767 654-744, limits assumed, looked up): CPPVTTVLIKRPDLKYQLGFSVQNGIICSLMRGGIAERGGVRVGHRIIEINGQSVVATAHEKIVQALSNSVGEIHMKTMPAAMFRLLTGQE

The next assay addresses T4, DFNB31_3, Q9P202.
T4 sequence (Q9P202 811-907, limits assumed, looked up): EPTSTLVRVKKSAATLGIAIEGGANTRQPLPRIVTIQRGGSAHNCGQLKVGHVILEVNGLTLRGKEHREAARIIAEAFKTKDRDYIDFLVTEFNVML

A further assay has as its target T5, GRIP1_2, Q9Y3R0.
T5 sequence (Q9Y3R0 145-248, limits assumed, looked up): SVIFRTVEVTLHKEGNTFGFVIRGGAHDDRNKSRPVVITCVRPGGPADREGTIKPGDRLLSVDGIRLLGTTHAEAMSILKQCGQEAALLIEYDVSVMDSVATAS

The target in another assay is T6, GRIP1_3, Q9Y3R0.
T6 sequence (Q9Y3R0 247-346, limits assumed, looked up): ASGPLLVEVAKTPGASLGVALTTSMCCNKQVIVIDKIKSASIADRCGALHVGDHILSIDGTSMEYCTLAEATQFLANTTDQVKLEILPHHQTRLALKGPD

The next assay deals with T7, HTRA4, P83105.
T7 sequence (P83105 378-476, limits assumed, looked up): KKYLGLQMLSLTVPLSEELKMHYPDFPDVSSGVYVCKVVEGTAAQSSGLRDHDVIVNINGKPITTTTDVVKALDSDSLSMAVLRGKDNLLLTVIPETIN

For the next assay, the target named is T8, LIN7C, Q9NUP9.
T8 sequence (Q9NUP9 88-185, limits assumed, looked up): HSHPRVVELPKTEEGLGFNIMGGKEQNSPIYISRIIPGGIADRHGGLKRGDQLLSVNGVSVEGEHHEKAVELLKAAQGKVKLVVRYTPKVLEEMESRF

In the next assay the target is T9, PDZD7_3, Q9H5P4.
T9 sequence (Q9H5P4 857-944, limits assumed, looked up): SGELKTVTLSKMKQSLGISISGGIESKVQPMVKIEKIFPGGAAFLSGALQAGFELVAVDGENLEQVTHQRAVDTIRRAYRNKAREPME

The target of a further assay is T10, RAPGEF6, Q8TEU7.
T10 sequence (Q8TEU7 525-625, limits assumed, looked up): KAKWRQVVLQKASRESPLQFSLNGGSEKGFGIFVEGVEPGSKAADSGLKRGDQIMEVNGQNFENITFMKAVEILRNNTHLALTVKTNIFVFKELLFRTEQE

A further assay deals with T11, SNTA1, Q13424.
T11 sequence (Q13424 82-180, limits assumed, looked up): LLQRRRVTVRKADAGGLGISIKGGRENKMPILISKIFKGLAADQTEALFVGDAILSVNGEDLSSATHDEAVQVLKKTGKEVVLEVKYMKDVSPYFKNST

The next assay deals with T12, SYNJ2BP, P57105.
T12 sequence (P57105 8-110, limits assumed, looked up): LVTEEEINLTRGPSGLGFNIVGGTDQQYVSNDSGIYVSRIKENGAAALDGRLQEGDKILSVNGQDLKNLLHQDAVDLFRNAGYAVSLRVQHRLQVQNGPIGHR

For another assay, the target named is T13, TIAM2, Q8IVF5.
T13 sequence (Q8IVF5 885-986, limits assumed, looked up): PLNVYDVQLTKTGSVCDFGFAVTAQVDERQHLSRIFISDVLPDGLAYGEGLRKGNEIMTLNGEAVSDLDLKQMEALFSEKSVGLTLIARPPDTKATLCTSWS

The target in the next assay is T14, TX1BP3, O14907.
T14 sequence (O14907 10-122, limits assumed, looked up): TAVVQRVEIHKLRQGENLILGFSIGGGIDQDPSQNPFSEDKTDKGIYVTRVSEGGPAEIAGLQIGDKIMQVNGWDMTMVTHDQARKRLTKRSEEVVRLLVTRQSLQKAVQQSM

[1] abbreviates: plain residues with an end cap or a label only (N-terminal biotin on a linker: ttds).
[2] abbreviates: plain residues with an end cap or a label only (N-terminal biotin on a linker: ahx).

Inadl_9, Q8NI35, sequence (Q8NI35 1530-1615): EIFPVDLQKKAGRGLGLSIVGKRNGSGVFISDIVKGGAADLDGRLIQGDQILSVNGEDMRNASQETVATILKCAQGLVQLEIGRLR
MAGI1_2, Q96QZ7, sequence (Q96QZ7 456-580): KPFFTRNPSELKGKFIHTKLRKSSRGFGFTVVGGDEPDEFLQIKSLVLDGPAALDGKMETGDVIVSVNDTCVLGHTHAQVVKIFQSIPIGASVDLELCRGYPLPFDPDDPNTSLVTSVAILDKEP
DLG4_1, P78352, sequence (P78352 62-152): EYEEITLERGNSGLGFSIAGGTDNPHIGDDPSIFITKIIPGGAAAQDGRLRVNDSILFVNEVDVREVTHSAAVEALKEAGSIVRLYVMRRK
Inadl_3, Q8NI35, sequence (Q8NI35 359-469): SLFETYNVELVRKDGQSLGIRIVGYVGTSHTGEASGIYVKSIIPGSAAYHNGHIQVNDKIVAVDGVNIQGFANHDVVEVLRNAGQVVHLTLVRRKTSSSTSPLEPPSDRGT
Inadl_4, Q8NI35, sequence (Q8NI35 547-651): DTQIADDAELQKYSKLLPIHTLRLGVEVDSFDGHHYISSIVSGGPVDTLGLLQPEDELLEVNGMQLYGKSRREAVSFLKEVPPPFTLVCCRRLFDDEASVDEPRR
MAGI2_5, Q86UL8, sequence (Q86UL8 915-1017): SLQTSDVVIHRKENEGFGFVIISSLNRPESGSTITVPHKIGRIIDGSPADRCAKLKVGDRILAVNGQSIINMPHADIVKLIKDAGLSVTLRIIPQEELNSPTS

The pKd is −log10 of the Kd, conventionally taken in molar units. With QRQARSETLV [HPV59-E6, Q81964], the pKd entry in the assay with APBA1_1, Q02410 (setting [1]) was “below the threshold”; in the assay with APBA2_1, Q99767 (setting [1]), “below the threshold”; with APBA2_2, Q99767 (setting [1]), “below the threshold”; with DFNB31_3, Q9P202 (setting [1]) it was “below the threshold”; with DLG1_1, Q12959 (setting [1]), 5.05; with DLG1_3, Q12959 (setting [1]), 3.82. In addition, the negative-log Kd (pKd) in the assay with DLG4_1, P78352 (setting [1]) was 5.11; with GRIP1_2, Q9Y3R0 (setting [1]), “below the threshold”; with GRIP1_3, Q9Y3R0 (setting [1]), “below the threshold”; in the assay with HTRA4, P83105 (setting [1]), 3.78; with Inadl_3, Q8NI35 (setting [1]), “below the threshold”; in the assay with Inadl_4, Q8NI35 (setting [1]) it was “below the threshold”. In addition, the negative-log Kd (pKd) result in the assay with Inadl_9, Q8NI35 (setting [1]) is “below the threshold”; with LIN7C, Q9NUP9 (setting [1]) it was 3.87; with MAGI1_2, Q96QZ7 (setting [1]) it was 6.04; with MAGI2_5, Q86UL8 (setting [1]), 5.02; in the assay with PDZD7_3, Q9H5P4 (setting [1]), 4.72; with RAPGEF6, Q8TEU7 (setting [1]), “below the threshold”. In addition, the pKd with SNTA1, Q13424 (setting [1]) was 3.99; with SYNJ2BP, P57105 (setting [1]), 4.81; with TIAM2, Q8IVF5 (setting [1]), “below the threshold”; with TX1BP3, O14907 (setting [1]) it was 4.05.

DKDPHSETAL [TMIGD1, Q6UXZ0]: the pKd entry with APBA1_1, Q02410 (setting [1]) was “below the threshold”; with APBA2_1, Q99767 (setting [1]), “below the threshold”; in the assay with APBA2_2, Q99767 (setting [1]) it was “below the threshold”; with DFNB31_3, Q9P202 (setting [1]) it was “below the threshold”; in the assay with DLG1_1, Q12959 (setting [1]) it was 3.77; with DLG1_3, Q12959 (setting [1]), “below the threshold”. Besides, the negative-log Kd (pKd) entry is listed as “below the threshold” with DLG4_1, P78352 (setting [1]); “below the threshold” with GRIP1_2, Q9Y3R0 (setting [1]); “below the threshold” with GRIP1_3, Q9Y3R0 (setting [1]); “below the threshold” with HTRA4, P83105 (setting [1]); “below the threshold” in the assay with Inadl_3, Q8NI35 (setting [1]); “below the threshold” in the assay with Inadl_4, Q8NI35 (setting [1]). Also, the negative logarithm of the Kd (pKd) result was “below the threshold” with Inadl_9, Q8NI35 (setting [1]); “below the threshold” with LIN7C, Q9NUP9 (setting [1]); “below the threshold” with MAGI1_2, Q96QZ7 (setting [1]); 3.67 with MAGI2_5, Q86UL8 (setting [1]); 4.07 with PDZD7_3, Q9H5P4 (setting [1]); “below the threshold” with RAPGEF6, Q8TEU7 (setting [1]). Besides, the negative-log Kd (pKd) is 4.07 in the assay with SNTA1, Q13424 (setting [1]); 4.42 in the assay with SYNJ2BP, P57105 (setting [1]); “below the threshold” with TIAM2, Q8IVF5 (setting [1]); 4.03 with TX1BP3, O14907 (setting [1]).

Regarding SDSSGQEYSL [KCTD3, Q9Y597], the pKd result in the assay with APBA1_1, Q02410 (setting [2]) is recorded as “below the threshold”; with APBA2_1, Q99767 (setting [2]), “below the threshold”; with APBA2_2, Q99767 (setting [2]), “below the threshold”; with DFNB31_3, Q9P202 (setting [2]), “below the threshold”; in the assay with DLG1_1, Q12959 (setting [2]), “below the threshold”; in the assay with DLG1_3, Q12959 (setting [2]), “below the threshold”. Moreover, the pKd result with DLG4_1, P78352 (setting [2]) is “below the threshold”; with GRIP1_2, Q9Y3R0 (setting [2]), “below the threshold”; with GRIP1_3, Q9Y3R0 (setting [2]), “below the threshold”; with HTRA4, P83105 (setting [2]), “below the threshold”; with Inadl_3, Q8NI35 (setting [2]) it was “below the threshold”; with Inadl_4, Q8NI35 (setting [2]), “below the threshold”. Also, the pKd result is reported as “below the threshold” with Inadl_9, Q8NI35 (setting [2]); “below the threshold” with LIN7C, Q9NUP9 (setting [2]); “below the threshold” with MAGI1_2, Q96QZ7 (setting [2]); “below the threshold” with MAGI2_5, Q86UL8 (setting [2]); “below the threshold” with PDZD7_3, Q9H5P4 (setting [2]); “below the threshold” with RAPGEF6, Q8TEU7 (setting [2]). Moreover, the pKd entry in the assay with SNTA1, Q13424 (setting [2]) is given as “below the threshold”; in the assay with SYNJ2BP, P57105 (setting [2]) it was “below the threshold”; in the assay with TIAM2, Q8IVF5 (setting [2]), “below the threshold”; with TX1BP3, O14907 (setting [2]), “below the threshold”.

For the molecule KKYVDAETSL [SLC4A7, Q9Y6M7], the negative logarithm of the Kd (pKd) entry with APBA1_1, Q02410 (setting [1]) is “below the threshold”; with APBA2_1, Q99767 (setting [1]), “below the threshold”; in the assay with APBA2_2, Q99767 (setting [1]), “below the threshold”; with DFNB31_3, Q9P202 (setting [1]), “below the threshold”; in the assay with DLG1_1, Q12959 (setting [1]), “below the threshold”; with DLG1_3, Q12959 (setting [1]), 3.75. Besides, the pKd is 3.73 in the assay with DLG4_1, P78352 (setting [1]); “below the threshold” in the assay with GRIP1_2, Q9Y3R0 (setting [1]); “below the threshold” in the assay with GRIP1_3, Q9Y3R0 (setting [1]); “below the threshold” with HTRA4, P83105 (setting [1]); “below the threshold” with Inadl_3, Q8NI35 (setting [1]); “below the threshold” with Inadl_4, Q8NI35 (setting [1]). For the same molecule, the negative-log Kd (pKd) entry with Inadl_9, Q8NI35 (setting [1]) is “below the threshold”; with LIN7C, Q9NUP9 (setting [1]) it was 3.81; with MAGI1_2, Q96QZ7 (setting [1]), 3.69; in the assay with MAGI2_5, Q86UL8 (setting [1]) it was 3.52; in the assay with PDZD7_3, Q9H5P4 (setting [1]), 3.77; with RAPGEF6, Q8TEU7 (setting [1]) it was “below the threshold”. In addition, the negative logarithm of the Kd (pKd) is 4.14 with SNTA1, Q13424 (setting [1]); 4.28 with SYNJ2BP, P57105 (setting [1]); “below the threshold” in the assay with TIAM2, Q8IVF5 (setting [1]); 3.82 with TX1BP3, O14907 (setting [1]).

Turning to ESLLLGPSNF [SHROOM4, Q9ULL8], the negative-log Kd (pKd) result is recorded as “below the threshold” with APBA1_1, Q02410 (setting [2]); “below the threshold” in the assay with APBA2_1, Q99767 (setting [2]); “below the threshold” with APBA2_2, Q99767 (setting [2]); “below the threshold” with DFNB31_3, Q9P202 (setting [2]); “below the threshold” in the assay with DLG1_1, Q12959 (setting [2]); “below the threshold” in the assay with DLG1_3, Q12959 (setting [2]). For the same molecule, the negative logarithm of the Kd (pKd) result with DLG4_1, P78352 (setting [2]) was “below the threshold”; with GRIP1_2, Q9Y3R0 (setting [2]), “below the threshold”; with GRIP1_3, Q9Y3R0 (setting [2]) it was “below the threshold”; in the assay with HTRA4, P83105 (setting [2]) it was “below the threshold”; with Inadl_3, Q8NI35 (setting [2]), 3.59; in the assay with Inadl_4, Q8NI35 (setting [2]), “below the threshold”. Besides, the pKd result was “below the threshold” with Inadl_9, Q8NI35 (setting [2]); “below the threshold” in the assay with LIN7C, Q9NUP9 (setting [2]); “below the threshold” in the assay with MAGI1_2, Q96QZ7 (setting [2]); “below the threshold” with MAGI2_5, Q86UL8 (setting [2]); “below the threshold” with PDZD7_3, Q9H5P4 (setting [2]); “below the threshold” with RAPGEF6, Q8TEU7 (setting [2]). Besides, the negative logarithm of the Kd (pKd) result in the assay with SNTA1, Q13424 (setting [2]) was “below the threshold”; with SYNJ2BP, P57105 (setting [2]), “below the threshold”; with TIAM2, Q8IVF5 (setting [2]), 3.49; with TX1BP3, O14907 (setting [2]), “below the threshold”.
